Measured values published in US10703784B2, “Antigens and epitopes derived from Mycobacterium tuberculosis” (priority 2011, dated 2020).

Tested on: PBMCs from LTBI donors (IFN-γ production)
Assay type: cell-based, human
Conditions: ex vivo IFN-γ ELISPOT; for Resp. freq.: fraction of 28 LTBI donors responding to epitopes of the antigen; for Total SFC: total spot-forming cells, LTBI donors

Molecule | Resp. freq. | Total SFC
Rv0690c: MTB protein, novel CD4 T cell antigen; Conserved hypotheticals (protein, listed as Mycobacterium tuberculosis) MTGTEHLVHTLRSQGRVCTSSGSPMYRELLELVAADVESGGVFASILADQKGAPEGQAVPLRLLGGLHRMVLDGRAPVLRRWYPSTGGTWQAEAAWPDIVRTATDQPESLRAALDRPPQTNEVGRSAALIGGLLIACLQFDLPIRLFEIGSSAGLNLRPDRYRYRYLGGEWGLADSPVRIDNAWLGELPPTATVRIVERHGYDIAPIDVTSPDGELNALSYIWPDQTDRLERLRGAIAVARNIPADLHRQAAHAAVAGMTLTDDALTVLWHSITWQYLPADERAAIRAGIDALAAQADAHCPFVHLTLEPAHQRPGAQIKYLVRMRSWPGGHARVLGECHPHGPPVTWQ | 11% | 233 SFC
Rv0985c: MTB protein, novel CD4 T cell antigen; Cell wall and cell processes (protein, listed as Mycobacterium tuberculosis) MLKGFKEFLARGNIVDLAVAVVIGTAFTALVTKFTDSIITPLINRIGVNAQSDVGILRIGIGGGQTIDLNVLLSAAINFFLIAFAVYFLVVLPYNTLRKKGEVEQPGDTQVVLLTEIRDLLAQTNGDSPGRHGGRGTPSPTDGPRASTESQ | 11% | 70 SFC
Rv0278c: MTB protein, novel CD4 T cell antigen; PE/PPE (protein, listed as Mycobacterium tuberculosis) MSFVIAAPEVIAAAATDLASLGSSISAANAAAAANTTALMAAGADEVSTAIAALFGAHGQAYQALSAQAQAFHAQFVQALTSGGGAYAAAEAAAVSPLLDPINEFFLANTGRPLIGNGANGAPGTGANGGDGGWLIGNGGAGGSGAAGVNGGAGGNGGAGGNGGAGGLIGNGGAGGAGGVASSGIGGSGGAGGNAMLFGAGGAGGAGGGVVALTGGAGGAGGAGGNAGLLFGAAGVGGAGGFTNGSALGGAGGAGGAGGLFATGGVGGSGGAGSSGGAGGAGGAGGLFGAGGTGGHGGFADSSFGGVGGAGGAGGLFGAGGEGGSGGHSLVAGGDGGAGGNAGMLALGAAGGAGGIGGDGGTLTAGGIGGAGGAGGNAGLLFGSGGSGGAGGFGFADGGQGGPGGNAGTVFGSGGAGGNGGVGQGFAGGIGGAGGTPGLIGNGGNGGNGGASAVTGGNGGIGGTGVLIGNGGNGGSGGIGAGKAGVGGVSGLLLGLDGFNAPASTSPLHTLQQNVLNVVNEPFQTLTGRPLIGNGANGTPGTGADGGAGGWLFGNGANGTPGTGAAGGAGGWLFGNGGNGGHGATNTAATATGGAGGAGGILFGTGGNGGTGGIATGAGGIGGAGGAGGVSLLIGSGGTGGNGGNSIGVAGIGGAGGRGGDAGLLFGAAGTGGHGAAGGVPAGVGGAGGNGGLFANGGAGGAGGFNAAGGNGGNGGLFGTGGTGGAGTNFGAGGNGGNGGLFGAGGTGGAAGSGGSGITTGGGGHGGNAGLLSLGASGGAGGSGGASSLAGGAGGTGGNGALLFGFRGAGGAGGHGGAALTSIQQGGAGGAGGNGGLLFGSAGAGGAGGSGANALGAGTGGTGGDGGHAGVFGNGGDGGCRRVWRRYRRQRWCRRQRRADRQRRQRRQRRQSRGHARCRRHRRAAARRERTQRLAIAGRPATTRGVEGISCSPQMMP | 11% | 45 SFC
Rv3012c: MTB protein, novel CD4 T cell antigen; Information pathways (protein, listed as Mycobacterium tuberculosis) MSQISRDEVAHLARLARLALTETELDSFAGQLDAILTHVSQIQAVDVTGVQATDNPLKDVNVTRPDETVPCLTQRQVLDQAPDAVDGRFAVPQILGDEQ | 14% | 233 SFC
Rv3025c: MTB protein, novel CD4 T cell antigen; Intermediary metabolism and respiration, Island 2 (protein, listed as Mycobacterium tuberculosis) MAYLDHAATTPMHPAAIEAMAAVQRTIGNASSLHTSGRSARRRIEEARELIADKLGARPSEVIFTAGGTESDNLAVKGIYWARRDAEPHRRRIVTTEVEHHAVLDSVNWLVEHEGAHVTWLPTAADGSVSATALREALQSHDDVALVSVMWANNEVGTILPIAEMSVVAMEFGVPMHSDAIQAVGQLPLDFGASGLSAMSVAGHKFGGPPGVGALLLRRDVTCVPLMHGGGQERDIRSGTPDVASAVGMATAAQIAVDGLEENSARLRLLRDRLVEGVLAEIDDVCLNGADDPMRLAGNAHFTFRGCEGDALLMLLDANGIECSTGSACTAGVAQPSHVLIAMGVDAASARGSLRLSLGHTSVEADVDAALEVLPGAVARARRAALAAAGASR | 14% | 423 SFC
Rv0279c: MTB protein, novel CD4 T cell antigen; PE/PPE (protein, listed as Mycobacterium tuberculosis) MSFVIAAPEVIAAAATDLASLESSIAAANAAAAANTTALLAAGADEVSTAVAALFGAHGQAYQALSAQAQAFHAQFVQALTSGGGAYAAAEAAATSPLLAPINEFFLANTGRPLIGNGTNGAPGTGANGGDGGWLIGNGGAGGSGAAGVNGGAGGNGGAGGLIGNGGAGGAGGRASTGTGGAGGAGGAAGMLFGAAGVGGPGGFAAAFGATGGAGGAGGNGGLFADGGVGGAGGATDAGTGGAGGSGGNGGLFGAGGTGGPGGFGIFGGGAGGDGGSGGLFGAGGTGGSGGTSIINVGGNGGAGGDAGMLSLGAAGGAGGSGGSNPDGGGGAGGIGGDGGTLFGSGGAGGVCGLGFDAGGAGGAGGKAGLLIGAGGAGGAGGGSFAGAGGTGGAGGAPGLVGNAGNGGNGGASANGAGAAGGAGGSGVLIGNGGNGGSGGTGAPAGTAGAGGLGGQLLGRDGFNAPASTPLHTLQQQILNAINEPTQALTGRPLIGNGANGTPGTGADGGAGGWLFGNGGNGGHGATGADGGDGGSGGAGGILSGIGGTGGSGGIGTTGQGGTGGTGGAALLIGSGGTGGSGGFGLDTGGAGGRGGDAGLFLGAAGTGGQAALSQNFIGAGGTAGAGGTGGLFANGGAGGAGGFGANGGTGGNGLLFGAGGTGGAGTLGADGGAGGHGGLFGAGGTGGAGGSSGGTFGGNGGSGGNAGLLALGASGGAGGSGGSALNVGGTGGVGGNGGSGGSLFGFGGAGGTGGSSGIGSSGGTGGDGGTAGVFGNGGDGGAGGFGADTGGNSSSVPNAVLIGNGGNGGNGGKAGGTPGAGGTSGLIIGENGLNGL | 11% | 45 SFC
Rv0299: MTB protein, novel CD4 T cell antigen; Conserved hypotheticals (protein, listed as Mycobacterium tuberculosis) MIAPGDIAPRRDSEHELYVAVLSNALHRAADTGRVITCPFIPGRVPEDLLAMVVAVEQPNGTLLPELVQWLHVAALGAPLGNAGVAALREAASVVTALLC | 14% | 467 SFC
Rv0293c: MTB protein, novel CD4 T cell antigen; Conserved hypotheticals, Island 1 (protein, listed as Mycobacterium tuberculosis) MSGTFTADAIGPPVPIPDVPGADAGAEGLPSRSVLSARQRILVESSAIADVALRTAVASVLSATVTPAVVANALRHVNEGSERSNLNFYAELAAAHDPAKSFPAPTELPKVTSRPASPLTEWVARGTVDNIAFASGFRAINPTMRQRWSALTANNIVHAQHWRHRDGPRPTLCVIHGFMGSSYLLNGLFFSLPWYYRSGYDVLLYTLPFHGQRAEKFSPFSGFGYFTSGLSGFAEAMAQAVYDFRSIVDYLRHIGVDRIALTGISLGGYTSALLASVESRLEAVIPNCPVVMPAKLFDEWFPANKLVKLGLRLTNISRDELIAGLAYHGPLNYRPLLPKDRRMIITGLGDRMAPPEHAVTLWKQWDRCALHWFPGSHLLHVSQLDYLRRMTVFLQGLMFD | 14% | 1073 SFC
Rv0298: MTB protein, novel CD4 T cell antigen; Conserved hypotheticals (protein, listed as Mycobacterium tuberculosis) MTKEKISVTVDAAVLAAIDADARAAGLNRSEMIEQALRNEHLRVALRDYTAKTVPALDIDAYAQRVYQANRAAGS | 11% | 783 SFC
Rv0442c: MTB protein, novel CD4 T cell antigen; PE/PPE (protein, listed as Mycobacterium tuberculosis) MTSPHFAWLPPEINSALMFAGPGSGPLIAAATAWGELAEKLLASIASLGSVTSELTSGAWLGPSAAAMMAVATQYLAWLSTAAAQAEQAAAQAMAIATAFEAALAATVQPAVVAANRGLMQLLAATNWFGQNAPALMDVEAAYEQMWALDVAAMAGYHFDASAAVAQLAPWQQVLRNLGIDIGKNGQINLGFGNTGSGNIGNNNIGNNNIGSGNTGTGNIGSGNTGSGNLGLGNLGDGNIGFGNTGSGNIGFGITGDHQMGFGGFNSGSGNIGFGNSGTGNVGLFNSGSGNIGIGNSGSLNSGIGTSGTINAGLGSAGSLNTSFWNAGMQNAALGSAAGSEAALVSSAGYATGGMSTAALSSGILASALGSTGGLQHGLANVLNSGLTNTPVAAPASAPVGGLDSGNPNPGSGSAAAGSGANPGLRSPGTSYPSFVNSGSNDSGLRNTAVREPSTPGSGIPKSNFYPSPDRESAYASPRIGQPVGSE | 11% | 232 SFC
Rv0297: MTB protein, novel CD4 T cell antigen; PE/PPE (protein, listed as Mycobacterium tuberculosis) MSFVIAQPEMIAAAAGELASIRSAINAANAAAAAQTTGVMSAAADEVSTAVAALFSSHAQAYQAASAQAAAFHAQVVRTLTVDAGAYASAEAANAGPNMLAAVNAPAQALLGRPLIGNGANGAPGTGQAGGDGGLLFGNGGNGGSGAPGQAGGAGGAAGFFGNGGNGGDGGAGANGGAGGTAGWFFGFGGNGGAGGIGVAGINGGLGGAGGDGGNAGFFGNGGNGGMGGAGAAGVNAVNPGLATPVTPAANGGNGLNLVGVPGTAGGGADGANGSAIGQAGGAGGDGGNASTSGGIGIAQTGGAGGAGGAGGDGAPGGNGGNGGSVEHTGATGSSASGGNGATGGNGGVGAPGGAGGNGGHVSGGSVNTAGAGGKGGNGGTGGAGGPGGHGGSVLSGPVGDSGNGGAGGDGGAGVSATDIAGTGGRGGNGGHGGLWIGNGGDGGAGGVGGVGGAGAAGAIGGHGGDGGSVNTPIGGSEAGDGGKGGLGGDGGGRGIFGQFGAGGAGGAGGVGGAGGAGGTGGGGGNGGAIFNAGTPGAAGTGGDGGVGGTGAAGGKGGAGGSGGVNGATGADGAKGLDGATGGKGNNGNPG | 14% | 154 SFC
